Patent publication US20240000938A1 (A2 BIOTHERAPEUTICS, published 2024)
Blank lines part the entries; values can stand above or below the binder they belong to.

How the values were obtained:
[1] = target: HLA-A*02 / HA-1(H) peptide … on T2 cells (human); assay: cell-based or functional assay
HLA-A*02 on cells = HLA-A*02 on cells (human); assay: cell-based or functional assay

Emax shifted downward (KRAS TCR) [1]: 2.7 fold
Emax shifted downward (NY-ESO-1 TCR) [1]: 1.5 fold
additional right shift in activity of the NY-ESO-1 TCR [1]: ~10 fold
block of KRAS TCR activity [1]: ~5 fold
B1: HA-1 Ftcr blocker (TCR, V domains shown)
V domain 1: KNEVEQSPQNLTAQEGEFITINCSYSVGISALHWLQQHPGGGIVSLFMLSSGKKKHGRLIATINIQEKHSSLHITASHPRDSAVYICAVRSVSGAGSYQLTFGKGTKLSVIP
V domain 2: DTGVSQNPRHKITKRGQNVTFRCDPISEHNRLYWYRQTLGQGPEFLTYFQNEAQLEKSRLLSDRFSAERPKGSFSTLEIQRTEQGDSAMYLCASSIDSFNEQFFGPGTRLTVLE

EC50 right shift of the NY-ESO-1 TCR (HLA-A*02 on cells): ~30 fold
Binder: VLHDDLLEA [HA-1(H) peptide VLHDDLLEA]
